This is an account of results in the DeepSol protein solubility set.

A short description of this data set: soluble on expression in E. coli; label from the status in PepcDB or PDB records.
Turning to “MKIAVVTESSANLKAQAVKDYQITVVNDPIMFGNHVYHENVDITTDQFYRLLKVEKEIPTISQISMPEMQVVFDQLQAAGYDQILVIGLSSGISGWINNLKTYAPSVDGIDVRVFDSRTACAGTANMVKLAAAMALADYTLDEIIAQLTRLRAATTTVLIVNSMRHLVKNGRIYNNSSLAGTMVLRNKPIITFNGHGKIQLLGKERTLKNAQQAVQDEFSQFVMNSQLPVRLDVISANDARIAEDWASELRYQFPAVRVKTGVIGPVLGVLTGDHALGMIWSLDWKPLLTTLNQEQKQ”, the “soluble on expression in E. coli” value was “not soluble”.
The value for “MLPEYGPLAPSEEELHLFGDVDRLKVLEIGCGSGHSLKYLDEKQAGELWGIDLSTKQIEAAQTVLKDSKAPVTLFESPMEVNPGLPTDYFDIVFSIYALGWTTNLTKTLENVYRYLKPGGSFIFSWEHPMYNRVRQHQHGLTVDKSYHEEGAYAHEAWSSPAIMQQYRLSTYLNHLIDHGFKVERVIEDVCLADAQKHTNGWYGYEKAQMIPTTLIIKCLKQLEHHHHHH” was “soluble”; that for “MSFFEQYRTGNLVLPNALFFHFKDIFPSADDFLVWQFLYLQTTTQIGEVASSQIAQATGKTPTEVNKSITTLTEAGLLDFTTVKVNNEIKMVVDASPALAVLDKLVSSENSTTGPVAGQPTNTQLIKQLTDELEQALGILNPMVIEDLNKEIQEEHTDPELIREALKEAVFNRKTNWNYIKGVLRNWKLSGITTKIQVEERRLEHQGKKQHHQVSDEFKTGMDAARQLWGGQ” was “not soluble”.
With “MSLTMREVAKAAGVSIKTVSNVVNDYEFVSQATRDKVNKAIAELGYTVNVSARNLRRGQTGIIGLAIPDLQMPYFAQLSSLVIEEAKKVGLRVIVEPTQYSRDGELEALHGSQQMMIDGLIYSPLELGQDDVEQLKVDYPLVLVGERIFTDQVDHIATENVEGAKRATQYLLTTGCRRVAVVGVHPGEKVGSAALRYQGYLEALEEAGVEFDDRLVVESGMWHRSDGVRAMNALLDSGVEVDGVVALNDMLASGVMHAIQMHGLHIPDDISVVGFDNSDDSQYLSPALTSIAPGLEAVARLSVKVLKERIDGRDPNADRPGEKVFRKVASSLVVRQSTKLPIDSLVLEGHHHHHH” the entry was “not soluble”.
With “METPIAEELAKKQKSISVAEFFEKNRQILGFDSAPRSLITTVKEAVDNALDACEEAGILPDILVQVERTGPDYVTVIIEDNGPGIVREQIPKVFAKLLYGSRFHALKQSRGQQGIGISAAVLYAQMTAGRHTKILSKTSPTAPAHYYELMINTSTNEPDILVDEVRDWFRPHGTQIELEMRAAYVKGRRQSIYEYLKATAIVNPHARITLIDPDGNEEVFERATDKMPEPAEEILPHPEGIELGTLMKMLHYTERQKLAPFLRYSFCKIGLLTAEEICKAAGLDPEIDPHALGRHEARKLIEAFEKVKIMAPPTDCLSPIGEDLIYRGLEKETTVDFIATSTRKPAVYSGNPFVVEVGMAYGGNLPKEEKISIMRFANRVPLLYQQGGCVTTHAVEDIKWKQYGLNQPGGGIPVGPVILLIHVASINVPFTSESKDAIADIPVIKEEIDLAIKEVARKLKHYLSKQSNLKKRREKEIIITKVLPKLAAKVAHVLEKDVPDINPVVAKIMGNLLVHRVIKNNGDGTVDVAIKVKNFGTSAYSFRVHEMLPCKVSGAKPEPKVVTMGNDYDYVWDISASAGSSKVLSYKIESASEEELQKLPQLIVEGIEEELVTGAKAFKGV” the entry was “soluble”; with “MWRELWRVVEKSDIIVQIVDARNPLLFRSKDLDDYVKEVDPAKQILLLVNKADLLKPEQQASWREYFEKENIKVIFWSAIDEVLDPIDEDAVETSNPSTSTHMFVTNKDELIAKFKELGHVSDEPSAKPVMVGMVGYPNVGKSSTINKLAGGKKVSVSATPGKTRHFQTIHIDSQLCLCDCPGLVMPSFSFGRSEMFLNGILPVDQMRDHFGPTSLLLSRVPVHVIEATYSIMLPEMQSPSAINLLNSLAFMRGFMASSGIPDCSRAARLMFKDVVSGKLIWAAAPPGVEQEEFDRISYPDKKTRDIGRVQMEKLAKLQLLEGDELKGSQFDSQHFVGSIGVAHVRDSKALPQTLGTVIPTAPTENNGKKHYKGKKDKLRRIYNE”, “not soluble”.
Take “MLQLFSFLAIFYISLSNCDPQILRLKSIPSPIPNVEEGAKLYLASNDDNGLLKNIQVQTAGGSFTLDQINVNTANGNAKSIVIDGGLVISTSNSNADTSGLTGFLYLTTKKQADDPAFSVYVIKQAQTVSTTQPNSTVVILNTELDNDAFFDHIEPLQIGLDYWYFTASEPMSMTMESKYVSDLVYTTTSVNTTGLVVNDFLFQEHVVKFQLDLTRVRTIGTLVSAIPIASQINVIFNQGGGISAQR”: the “soluble on expression in E. coli” value is “not soluble”.
